Consider four substances from PMC3734285, “Expression and Function of the Lipocalin-2 (24p3/NGAL) Receptor in Rodent and Human Intestinal Epithelia” (PLoS ONE, 2013).

Experiment [1] addresses human lipocalin-2/NGAL receptor (hNGAL-R) (human (endogenous in Caco-2 BBE)) (UniProt Q8WUG5).
In the next experiment the target is hNGAL-R (Homo sapiens) (UniProt Q8WUG5). The conditions noted are these: cited from earlier work.
Experiment [2] deals with human lipocalin-2/NGAL receptor (hNGAL-R) (human (endogenous in Caco-2 BBE)) (UniProt Q8WUG5). The experiment can be described thus: MST; as a1 but co-incubated with 500 pM hNGAL as a binding competitor to A488-PC3.
human lipocalin-2/NGAL receptor (hNGAL-R) (human (endogenous in Caco-2 BBE)), sequence (Q8WUG5 112-649): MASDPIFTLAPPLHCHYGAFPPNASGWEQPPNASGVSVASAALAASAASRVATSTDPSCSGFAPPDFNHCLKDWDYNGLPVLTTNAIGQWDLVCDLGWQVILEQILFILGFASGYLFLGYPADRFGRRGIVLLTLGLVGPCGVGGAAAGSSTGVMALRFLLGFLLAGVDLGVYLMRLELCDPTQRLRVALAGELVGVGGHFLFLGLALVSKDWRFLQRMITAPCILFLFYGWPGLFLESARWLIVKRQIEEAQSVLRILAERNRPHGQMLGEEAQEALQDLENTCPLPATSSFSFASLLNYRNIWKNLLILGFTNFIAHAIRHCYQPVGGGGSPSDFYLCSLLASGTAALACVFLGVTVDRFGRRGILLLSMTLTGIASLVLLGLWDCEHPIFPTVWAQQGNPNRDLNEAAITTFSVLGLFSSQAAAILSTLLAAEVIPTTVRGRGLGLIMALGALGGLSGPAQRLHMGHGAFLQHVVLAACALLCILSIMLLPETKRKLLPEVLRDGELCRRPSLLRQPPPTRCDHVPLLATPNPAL
Experiment [3] shares this target. The experiment can be described thus: MST; fixed amounts of colon-like Caco-2 BBE plasma membrane vesicles pre-incubated 5 min at room temperature with varying A488-PC3 (10-1000 nM); 50 mM Tris pH 7.4, 150 mM NaCl, 10 mM MgCl2, 0.05% Tween-20; Hill fit with coefficient 1.0.
Experiment [4] shares this target. This is another data set of the same source.

Alexa Fluor 546-labelled metallothionein (rabbit apo-MT-2), sequence (P18055 whole entry): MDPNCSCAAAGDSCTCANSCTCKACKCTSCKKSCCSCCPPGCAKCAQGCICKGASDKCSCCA
Alexa Fluor 546-transferrin from human serum, sequence (P02787 20-698): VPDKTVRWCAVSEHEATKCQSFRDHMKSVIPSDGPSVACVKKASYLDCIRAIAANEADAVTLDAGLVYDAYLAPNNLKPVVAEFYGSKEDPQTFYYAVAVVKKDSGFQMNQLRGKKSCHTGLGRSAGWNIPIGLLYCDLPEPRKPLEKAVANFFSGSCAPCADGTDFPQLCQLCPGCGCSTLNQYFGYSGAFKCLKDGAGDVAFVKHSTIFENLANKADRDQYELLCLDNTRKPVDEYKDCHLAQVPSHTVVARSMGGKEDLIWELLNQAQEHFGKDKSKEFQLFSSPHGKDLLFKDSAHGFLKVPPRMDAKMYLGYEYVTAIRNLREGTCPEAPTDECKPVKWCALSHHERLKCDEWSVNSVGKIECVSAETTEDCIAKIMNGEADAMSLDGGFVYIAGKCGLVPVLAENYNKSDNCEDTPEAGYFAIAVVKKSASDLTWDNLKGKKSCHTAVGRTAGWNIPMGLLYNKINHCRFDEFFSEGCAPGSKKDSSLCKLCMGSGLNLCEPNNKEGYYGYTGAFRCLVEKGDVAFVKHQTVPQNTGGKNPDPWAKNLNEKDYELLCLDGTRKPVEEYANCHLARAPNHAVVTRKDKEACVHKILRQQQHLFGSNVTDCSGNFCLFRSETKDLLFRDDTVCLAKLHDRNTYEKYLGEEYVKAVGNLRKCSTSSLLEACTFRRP
hNGAL-R (Homo sapiens), sequence (Q8WUG5 whole entry): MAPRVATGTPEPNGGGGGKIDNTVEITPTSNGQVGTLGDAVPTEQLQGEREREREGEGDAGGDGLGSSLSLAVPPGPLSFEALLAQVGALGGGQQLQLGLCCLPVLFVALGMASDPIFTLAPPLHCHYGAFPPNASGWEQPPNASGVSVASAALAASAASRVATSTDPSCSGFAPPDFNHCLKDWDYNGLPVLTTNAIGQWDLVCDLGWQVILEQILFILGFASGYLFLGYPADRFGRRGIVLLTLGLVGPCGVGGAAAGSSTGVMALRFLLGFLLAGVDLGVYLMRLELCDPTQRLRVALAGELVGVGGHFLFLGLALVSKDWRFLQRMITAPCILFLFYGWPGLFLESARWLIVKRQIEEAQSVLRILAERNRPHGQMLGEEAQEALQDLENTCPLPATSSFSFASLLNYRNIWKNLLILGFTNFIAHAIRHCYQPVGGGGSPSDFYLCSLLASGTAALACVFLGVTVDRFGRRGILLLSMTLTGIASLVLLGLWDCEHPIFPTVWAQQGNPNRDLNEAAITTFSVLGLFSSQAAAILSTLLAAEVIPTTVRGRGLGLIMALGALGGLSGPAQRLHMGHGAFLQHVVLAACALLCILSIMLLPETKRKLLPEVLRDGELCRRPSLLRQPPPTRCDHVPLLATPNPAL
hNGAL (lipocalin-2), sequence (P80188 21-198): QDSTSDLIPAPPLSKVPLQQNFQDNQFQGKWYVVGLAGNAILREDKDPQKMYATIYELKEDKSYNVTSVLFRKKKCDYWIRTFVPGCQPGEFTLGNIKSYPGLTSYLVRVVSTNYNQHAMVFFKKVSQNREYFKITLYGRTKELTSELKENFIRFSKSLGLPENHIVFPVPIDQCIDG

As to “Alexa Fluor 546-labelled metallothionein (rabbit apo-MT-2) (from UniProt P18055 1-62) (natural protein)”, the inhibition by 500 pM apical hNGAL of the apical decrease of 700 nM A546-MT in colon-like Caco-2 BBE Transwell monolayers (AUC over 8 h) in experiment [1] worked out at 40%.

As for “hNGAL (lipocalin-2) (from UniProt P80188)”, the Kd (commonly the concentration at which binding is half-saturated) with hNGAL-R (Homo sapiens) was 0.092 nM. In experiment [1], “Alexa Fluor 546-transferrin from human serum (from UniProt P02787 20-698) (natural protein)” had an inhibition by 500 pM apical hNGAL of the apical decrease of 700 nM A546-Tf in colon-like Caco-2 BBE Transwell monolayers (AUC over 8 h) of 25%. Take “Alexa Fluor 488 (A488)-PC3 (phytochelatin PC3) (peptide)”: the EC50 with 500 pM hNGAL in experiment [2] was 0.225 µM. For the same substance, in experiment [3], the EC50 (in general, the concentration giving half of the maximal effect) turned out to be 18.6 nM. The substance also yielded an inhibition by 500 pM apical hNGAL of the apical decrease of 700 nM A488-PC3 in colon-like Caco-2 BBE Transwell monolayers (AUC over 8 h) in experiment [1] of 25%. The substance further gave an internalization of A488-PC3 (up to 5.6 µM, 24 h) by colon-like Caco-2 BBE cells, two-site fit, first app KD in experiment [4] of 90 nM.
